In patent US20150374794A1 (Novo Nordisk, published 2015):
Numbered stars: 1 amine (or outer) side, 2 acyl side, 3 side chain; on linkers, the order of the positions; unused ones are H or OH. Square brackets hold non-standard residues; d marks the D form. Side chains are listed from the residue outwards. Ends that are not written are not given here. * marks the point of attachment. C18 diacid = O=C(O)CCCCCCCCCCCCCCCCC(=O)*; γGlu = O=C(O)[C@H](CCC(=O)[*:2])N[*:1]; AEEA = NCCOCCOCC(=O)O; Aib = CC(C)(N)C(=O)O

Assays:
human GLP-1 receptor [1] = biological target: T1, human GLP-1 receptor (human, UniProt P43220 24-463); assay: cell-based or functional assay
human glucagon receptor = human glucagon receptor (human, UniProt P47871 26-477); assay: cell-based or functional assay
human GLP-1 receptor [2] = biological target: T1, human GLP-1 receptor; assay: displacement of 125I-GLP-1(7-36)NH2, membranes with human GLP-1R, SPA
Procedure: The receptor binding of each compound to the human GLP-1 receptor was measured in a displacement binding assay. […] Each derivative was added in a series of concentrations to isolated membranes containing the human GLP-1 receptor and displacement of the labelled ligand was monitored. The receptor binding was reported as the concentration at which half of the labelled ligand was displaced from the receptor, the IC₅₀ value.

Chain of human glucagon receptor (P47871 26-477): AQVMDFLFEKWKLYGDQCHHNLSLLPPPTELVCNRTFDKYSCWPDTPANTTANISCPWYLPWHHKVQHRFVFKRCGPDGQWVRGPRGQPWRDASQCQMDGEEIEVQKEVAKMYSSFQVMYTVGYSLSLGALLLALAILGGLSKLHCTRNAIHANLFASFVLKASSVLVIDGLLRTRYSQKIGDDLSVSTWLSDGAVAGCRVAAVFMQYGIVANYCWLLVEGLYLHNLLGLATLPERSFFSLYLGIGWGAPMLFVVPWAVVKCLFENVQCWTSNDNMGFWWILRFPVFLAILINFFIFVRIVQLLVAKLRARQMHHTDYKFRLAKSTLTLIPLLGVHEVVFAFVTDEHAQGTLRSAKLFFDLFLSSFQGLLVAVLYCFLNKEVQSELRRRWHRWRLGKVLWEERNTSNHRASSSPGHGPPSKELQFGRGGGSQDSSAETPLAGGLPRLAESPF

| Binder | EC50 GLP-1R, CRE luciferase reporter gene assay in BHK cells (human GLP-1 receptor [1]) | EC50 GlucR, CRE luciferase reporter gene assay in BHK cells (human glucagon receptor) | IC50 (human GLP-1 receptor [2]) |
| --- | --- | --- | --- |
| H[Aib]HGTFTSDLSKYLESRRAREFVQWLLK([γGlu-AEEA-AEEA-γGlu-γGlu-C18 diacid])T-NH2 (N-terminus assumed; SMILES CC(C)C[C@H](NC(=O)[C@H](Cc1ccc(O)cc1)NC(=O)[C@H](CCCCN)NC(=O)[C@H](CO)NC(=O)[C@H](CC(C)C)NC(=O)[C@H](CC(=O)O)NC(=O)[C@H](CO)NC(=O)[C@@H](NC(=O)[C@H](Cc1ccccc1)NC(=O)[C@@H](NC(=O)CNC(=O)[C@H](Cc1c[nH]cn1)NC(=O)C(C)(C)NC(=O)[C@@H](N)Cc1c[nH]cn1)[C@@H](C)O)[C@@H](C)O)C(=O)N[C@@H](CCC(=O)O)C(=O)N[C@@H](CO)C(=O)N[C@@H](CCCNC(=N)N)C(=O)N[C@@H](CCCNC(=N)N)C(=O)N[C@@H](C)C(=O)N[C@@H](CCCNC(=N)N)C(=O)N[C@@H](CCC(=O)O)C(=O)N[C@@H](Cc1ccccc1)C(=O)N[C@H](C(=O)N[C@@H](CCC(N)=O)C(=O)N[C@@H](Cc1c[nH]c2ccccc12)C(=O)N[C@@H](CC(C)C)C(=O)N[C@@H](CC(C)C)C(=O)N[C@@H](CCCCNC(=O)CC[C@H](NC(=O)COCCOCCNC(=O)COCCOCCNC(=O)CC[C@H](NC(=O)CC[C@H](NC(=O)CCCCCCCCCCCCCCCCC(=O)O)C(=O)O)C(=O)O)C(=O)O)C(=O)N[C@H](C(N)=O)[C@@H](C)O)C(C)C) | 0.0357 nM | 0.0048 nM | 1.4 nM |
| H[Aib]QGTFTSDLSKYLESKRAREFVQWLLK([γGlu-γGlu-Ser-Glu-Ser-γGlu-γGlu-C18 diacid])T-NH2 | 0.004 nM |  | 0.2 nM |
| H[Aib]QGTFTSDLSKYLDKRRAEDFVQWLLSK([γGlu-γGlu-AEEA-AEEA-γGlu-C18 diacid])-NH2 (N-terminus assumed; SMILES CC(C)C[C@H](NC(=O)[C@H](CC(C)C)NC(=O)[C@H](Cc1c[nH]c2ccccc12)NC(=O)[C@H](CCC(N)=O)NC(=O)[C@@H](NC(=O)[C@H](Cc1ccccc1)NC(=O)[C@H](CC(=O)O)NC(=O)[C@H](CCC(=O)O)NC(=O)[C@H](C)NC(=O)[C@H](CCCNC(=N)N)NC(=O)[C@H](CCCNC(=N)N)NC(=O)[C@H](CCCCN)NC(=O)[C@H](CC(=O)O)NC(=O)[C@H](CC(C)C)NC(=O)[C@H](Cc1ccc(O)cc1)NC(=O)[C@H](CCCCN)NC(=O)[C@H](CO)NC(=O)[C@H](CC(C)C)NC(=O)[C@H](CC(=O)O)NC(=O)[C@H](CO)NC(=O)[C@@H](NC(=O)[C@H](Cc1ccccc1)NC(=O)[C@@H](NC(=O)CNC(=O)[C@H](CCC(N)=O)NC(=O)C(C)(C)NC(=O)[C@@H](N)Cc1c[nH]cn1)[C@@H](C)O)[C@@H](C)O)C(C)C)C(=O)N[C@@H](CO)C(=O)N[C@@H](CCCCNC(=O)CC[C@H](NC(=O)CC[C@H](NC(=O)COCCOCCNC(=O)COCCOCCNC(=O)CC[C@H](NC(=O)CCCCCCCCCCCCCCCCC(=O)O)C(=O)O)C(=O)O)C(=O)O)C(N)=O) | 0.028 nM | 0.599 nM |  |
| H[Aib]QGTFTSDLSKYLDTRRAQDFVRWLLSK([γGlu-γGlu-AEEA-AEEA-γGlu-C18 diacid])-NH2 (N-terminus assumed; SMILES CC(C)C[C@H](NC(=O)[C@H](CC(C)C)NC(=O)[C@H](Cc1c[nH]c2ccccc12)NC(=O)[C@H](CCCNC(=N)N)NC(=O)[C@@H](NC(=O)[C@H](Cc1ccccc1)NC(=O)[C@H](CC(=O)O)NC(=O)[C@H](CCC(N)=O)NC(=O)[C@H](C)NC(=O)[C@H](CCCNC(=N)N)NC(=O)[C@H](CCCNC(=N)N)NC(=O)[C@@H](NC(=O)[C@H](CC(=O)O)NC(=O)[C@H](CC(C)C)NC(=O)[C@H](Cc1ccc(O)cc1)NC(=O)[C@H](CCCCN)NC(=O)[C@H](CO)NC(=O)[C@H](CC(C)C)NC(=O)[C@H](CC(=O)O)NC(=O)[C@H](CO)NC(=O)[C@@H](NC(=O)[C@H](Cc1ccccc1)NC(=O)[C@@H](NC(=O)CNC(=O)[C@H](CCC(N)=O)NC(=O)C(C)(C)NC(=O)[C@@H](N)Cc1c[nH]cn1)[C@@H](C)O)[C@@H](C)O)[C@@H](C)O)C(C)C)C(=O)N[C@@H](CO)C(=O)N[C@@H](CCCCNC(=O)CC[C@H](NC(=O)CC[C@H](NC(=O)COCCOCCNC(=O)COCCOCCNC(=O)CC[C@H](NC(=O)CCCCCCCCCCCCCCCCC(=O)O)C(=O)O)C(=O)O)C(=O)O)C(N)=O) | 0.02 nM | 0.19 nM |  |
| H[Aib]QGTFTSDLSKYLDSRRARK([γGlu-γGlu-AEEA-AEEA-γGlu-C18 diacid])FVQWLLST-NH2 (N-terminus assumed; SMILES CC(C)C[C@H](NC(=O)[C@H](Cc1ccc(O)cc1)NC(=O)[C@H](CCCCN)NC(=O)[C@H](CO)NC(=O)[C@H](CC(C)C)NC(=O)[C@H](CC(=O)O)NC(=O)[C@H](CO)NC(=O)[C@@H](NC(=O)[C@H](Cc1ccccc1)NC(=O)[C@@H](NC(=O)CNC(=O)[C@H](CCC(N)=O)NC(=O)C(C)(C)NC(=O)[C@@H](N)Cc1c[nH]cn1)[C@@H](C)O)[C@@H](C)O)C(=O)N[C@@H](CC(=O)O)C(=O)N[C@@H](CO)C(=O)N[C@@H](CCCNC(=N)N)C(=O)N[C@@H](CCCNC(=N)N)C(=O)N[C@@H](C)C(=O)N[C@@H](CCCNC(=N)N)C(=O)N[C@@H](CCCCNC(=O)CC[C@H](NC(=O)CC[C@H](NC(=O)COCCOCCNC(=O)COCCOCCNC(=O)CC[C@H](NC(=O)CCCCCCCCCCCCCCCCC(=O)O)C(=O)O)C(=O)O)C(=O)O)C(=O)N[C@@H](Cc1ccccc1)C(=O)N[C@H](C(=O)N[C@@H](CCC(N)=O)C(=O)N[C@@H](Cc1c[nH]c2ccccc12)C(=O)N[C@@H](CC(C)C)C(=O)N[C@@H](CC(C)C)C(=O)N[C@@H](CO)C(=O)N[C@H](C(N)=O)[C@@H](C)O)C(C)C) | 0.044 nM | 0.097 nM |  |
| H[Aib]QGTFTSDLSKYLDSRRARDFVK([γGlu-γGlu-AEEA-AEEA-γGlu-C18 diacid])WLLST-NH2 (N-terminus assumed; SMILES CC(C)C[C@H](NC(=O)[C@H](Cc1ccc(O)cc1)NC(=O)[C@H](CCCCN)NC(=O)[C@H](CO)NC(=O)[C@H](CC(C)C)NC(=O)[C@H](CC(=O)O)NC(=O)[C@H](CO)NC(=O)[C@@H](NC(=O)[C@H](Cc1ccccc1)NC(=O)[C@@H](NC(=O)CNC(=O)[C@H](CCC(N)=O)NC(=O)C(C)(C)NC(=O)[C@@H](N)Cc1c[nH]cn1)[C@@H](C)O)[C@@H](C)O)C(=O)N[C@@H](CC(=O)O)C(=O)N[C@@H](CO)C(=O)N[C@@H](CCCNC(=N)N)C(=O)N[C@@H](CCCNC(=N)N)C(=O)N[C@@H](C)C(=O)N[C@@H](CCCNC(=N)N)C(=O)N[C@@H](CC(=O)O)C(=O)N[C@@H](Cc1ccccc1)C(=O)N[C@H](C(=O)N[C@@H](CCCCNC(=O)CC[C@H](NC(=O)CC[C@H](NC(=O)COCCOCCNC(=O)COCCOCCNC(=O)CC[C@H](NC(=O)CCCCCCCCCCCCCCCCC(=O)O)C(=O)O)C(=O)O)C(=O)O)C(=O)N[C@@H](Cc1c[nH]c2ccccc12)C(=O)N[C@@H](CC(C)C)C(=O)N[C@@H](CC(C)C)C(=O)N[C@@H](CO)C(=O)N[C@H](C(N)=O)[C@@H](C)O)C(C)C) | 0.006 nM | 0.06 nM |  |
| H[Aib]QGTFTSDLSKYLDSRRARDFVQWLLK([γGlu-γGlu-AEEA-AEEA-γGlu-C18 diacid])T-NH2 (N-terminus assumed; SMILES CC(C)C[C@H](NC(=O)[C@H](Cc1ccc(O)cc1)NC(=O)[C@H](CCCCN)NC(=O)[C@H](CO)NC(=O)[C@H](CC(C)C)NC(=O)[C@H](CC(=O)O)NC(=O)[C@H](CO)NC(=O)[C@@H](NC(=O)[C@H](Cc1ccccc1)NC(=O)[C@@H](NC(=O)CNC(=O)[C@H](CCC(N)=O)NC(=O)C(C)(C)NC(=O)[C@@H](N)Cc1c[nH]cn1)[C@@H](C)O)[C@@H](C)O)C(=O)N[C@@H](CC(=O)O)C(=O)N[C@@H](CO)C(=O)N[C@@H](CCCNC(=N)N)C(=O)N[C@@H](CCCNC(=N)N)C(=O)N[C@@H](C)C(=O)N[C@@H](CCCNC(=N)N)C(=O)N[C@@H](CC(=O)O)C(=O)N[C@@H](Cc1ccccc1)C(=O)N[C@H](C(=O)N[C@@H](CCC(N)=O)C(=O)N[C@@H](Cc1c[nH]c2ccccc12)C(=O)N[C@@H](CC(C)C)C(=O)N[C@@H](CC(C)C)C(=O)N[C@@H](CCCCNC(=O)CC[C@H](NC(=O)CC[C@H](NC(=O)COCCOCCNC(=O)COCCOCCNC(=O)CC[C@H](NC(=O)CCCCCCCCCCCCCCCCC(=O)O)C(=O)O)C(=O)O)C(=O)O)C(=O)N[C@H](C(N)=O)[C@@H](C)O)C(C)C) | 0.004 nM | 0.016 nM |  |
